Data from patent US20210363194A1.

Key:
[1] = molecular target: eOD-60mer (eOD-GT8 60mer; eOD-GT8 fused to lumazine synthase, self-assembled 60-mer nanoparticle); assay: biolayer interferometry, eOD-60mer in solution on immobilized biotinylated mouse MBL; apparent affinity (avidity)
[2] = molecular target: recombinant mouse mannose-binding lectin (MBL) (mouse); assay: biolayer interferometry; eOD-60mer dilutions on biosensors loaded with biotinylated recombinant mouse MBL; apparent affinity [eOD-60mer]

“recombinant mouse mannose-binding lectin (MBL)” was tested, and the Kd [1] was 4 pM.
Substance “eOD-60mer (eOD-GT8 60mer; eOD-GT8 fused to lumazine synthase, self-assembled 60-mer nanoparticle)” has a Kd [2] of 3.78 pM.
